Several values for one entry are separate records, joined by “and”; a condition that tells them apart may be missing. Equal values may be shown once. Read-outs that look alike come from different tables or passages of the source.
Legend:
Test in all cases: SPR
[1] = biological target: T1, LRP1 cluster II (CR.3–10), recombinant, secreted from Sf9 cells (human, UniProt Q07954 852-1182)
T1 sequence: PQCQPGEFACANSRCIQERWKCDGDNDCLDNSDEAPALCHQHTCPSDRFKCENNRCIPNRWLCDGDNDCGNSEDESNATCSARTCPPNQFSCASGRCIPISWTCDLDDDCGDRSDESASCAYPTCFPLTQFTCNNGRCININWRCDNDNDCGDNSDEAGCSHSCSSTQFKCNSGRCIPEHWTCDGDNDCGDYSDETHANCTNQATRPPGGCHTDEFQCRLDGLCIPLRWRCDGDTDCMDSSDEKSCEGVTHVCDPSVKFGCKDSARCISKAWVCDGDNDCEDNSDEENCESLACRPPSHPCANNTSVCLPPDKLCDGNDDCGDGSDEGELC

[2] = biological target: T1, LRP1 cluster II (CR.3–10), recombinant, …; remark: listed apart in the source
[3] = biological target: T1, LRP1 cluster II (CR.3–10), recombinant, …; remark: listed apart in the source
[4] = biological target: LRP1 cluster IV (CR.21–31), recombinant, secreted from Sf9 cells (human, UniProt Q07954 3332-3778)
Sequence of LRP1 cluster IV (CR.21–31), recombinant, secreted from Sf9 cells (Q07954 3332-3778): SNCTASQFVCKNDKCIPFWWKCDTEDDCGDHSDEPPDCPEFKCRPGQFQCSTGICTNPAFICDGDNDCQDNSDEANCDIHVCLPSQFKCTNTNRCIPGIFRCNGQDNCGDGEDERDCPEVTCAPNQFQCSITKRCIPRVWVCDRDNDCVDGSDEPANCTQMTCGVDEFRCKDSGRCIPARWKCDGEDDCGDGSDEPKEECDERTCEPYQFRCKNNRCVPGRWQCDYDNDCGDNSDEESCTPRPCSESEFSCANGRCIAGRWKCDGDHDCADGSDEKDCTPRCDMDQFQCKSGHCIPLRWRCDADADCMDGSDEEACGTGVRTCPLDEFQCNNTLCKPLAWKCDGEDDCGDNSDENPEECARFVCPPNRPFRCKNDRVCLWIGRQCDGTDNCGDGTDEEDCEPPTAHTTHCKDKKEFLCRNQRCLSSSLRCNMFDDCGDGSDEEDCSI

B1: RAP (commercial; R&D, 4296-LR) (natural protein, human)
chain: YSREKNQPKPSPKRESGEEFRMEKLNQLWEKAQRLHLPPVRLAELHADLKIQERDELAWKKLKLDGLDEDGEKEARLIRNLNVILAKYGLDGKKDARQVTSNSLSGTQEDGLDDPRLEKLWHKAKTSGKFSGEELDKLWREFLHHKEKVHEYNVLLETLSRTEEIHENVISPSDLSDIKGSVLHSRHTELKEKLRSINQGLDRLRRVSHQGYSTEAEFEEPRVIDLWDLAQSANLTDKELEAFREELKHFEAKIEKHNHYQKQLEIAHEKLRHAESVGDGERVSRSREKHALLEGRTKELGYTVKKHLQDLSGRISRARHNEL
Kd [1]: 2.66 nM | Kd [2]: 1.67 nM and 1.2 nM | Kd [3]: 1.97 nM and 2.4 nM | Kd [4]: 1.4 nM

Reference: article PMC8239462 (The Journal of Biological Chemistry, 2021)
